T1: human recombinant (r)BCMA_Fc-AF647 (human, UniProt Q02223 1-54, AF647 fluorescent label (site not stated))
T1 construct: Staining reagent for CAR detection by flow cytometry; not shown: Fc part
T1 sequence (looked up): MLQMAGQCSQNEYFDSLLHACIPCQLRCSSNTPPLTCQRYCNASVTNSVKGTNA

B1: Hy52 BCMA CAR (other)
chain: EVQLVESGGGLVKPGGSLRLSCAASGFTFSSFRMNWVRQAPGKGLEWVSSISSSSSYIYYADSVKGRFTISRDNAKNSLYLQMNSLRAEDTAVYYCARWLSYYGMDVWGQGTTVTVSSGGGGSGGGGSGGGGSGGGGSDIVMTQTPLSLPVTPGEPASISCRSSQSLLDSDDGNTYLDWYLQKPGQSPQLLIYTLSFRASGVPDRFSGSGSGTDFTLKIRRVEAEDVGVYYCMQRIGFPITFGQGTRLEIKTTTPAPRPPTPAPTIASQPLSLRPEACRPAAGGAVHTRGLDFACDIYIWAPLAGTCGVLLLSLVITLYCKRGRKKLLYIFKQPFMRPVQTTQEEDGCSCRFPEEEEGGCELRVKFSRSADAPAYQQGQNQLYNELNLGRREEYDVLDKRRGRDPEMGGKPRRKNPQEGLYNELQKDKMAEAYSEIGMKGERRRGKGHDGLYQGLSTATKDTYDALHMQALPPR
notes: Chimeric antigen receptor expressed on JNL cells or primary human T cells after lentiviral transduction
B2: Hy03 BCMA CAR (other)
chain: EVQLVESGGGLVQPGGSLRLSCAASGFTFSGFWMSWVRQAPGKGLEWVANIKQDGSEKYYVDSVRGRFTISRDNAKNSLYLQMNSLRAEDTAVYYCARALDYYGMDVWGQGTTVTVSSGGGGSGGGGSGGGGSGGGGSDIVMTQTPLSLPVTPGEPASISCRSSQSLLDSDDGNTYLDWYLQKPGQSPRLLIYTLSYRASGVPDRFSGSGSGTDFTLKISRVEAEDVGLYYCTQRLEFPSITFGQGTRLEIKTTTPAPRPPTPAPTIASQPLSLRPEACRPAAGGAVHTRGLDFACDIYIWAPLAGTCGVLLLSLVITLYCKRGRKKLLYIFKQPFMRPVQTTQEEDGCSCRFPEEEEGGCELRVKFSRSADAPAYQQGQNQLYNELNLGRREEYDVLDKRRGRDPEMGGKPRRKNPQEGLYNELQKDKMAEAYSEIGMKGERRRGKGHDGLYQGLSTATKDTYDALHMQALPPR
notes: as for B1
B3: PI61 BCMA CAR (other)
chain: QVQLQESGGGVVQPGRSLRLSCAASGFTFSSYGMHWVRQAPGKGLEWVAVISYDGSNKYYADSVKGRFTISRDNSKNTLYLQMNSLRAEDTAVYYCGGSGYALHDDYYGLDVWGQGTLVTVSSGGGGSGGGGSGGGGSQSALTQPASVSGSPGQSITISCTGTSSDVGGYNYVSWYQQHPGKAPKLMIYDVSNRPSGVSNRFSGSKSGNTASLTISGLQAEDEADYYCSSYTSSSTLYVFGSGTKVTVLTTTPAPRPPTPAPTIASQPLSLRPEACRPAAGGAVHTRGLDFACDIYIWAPLAGTCGVLLLSLVITLYCKRGRKKLLYIFKQPFMRPVQTTQEEDGCSCRFPEEEEGGCELRVKFSRSADAPAYQQGQNQLYNELNLGRREEYDVLDKRRGRDPEMGGKPRRKNPQEGLYNELQKDKMAEAYSEIGMKGERRRGKGHDGLYQGLSTATKDTYDALHMQALPPR
notes: Chimeric antigen receptor expressed on JNL cells or primary human T cells after lentiviral transduction; also called P161
B4: B61-02 BCMA CAR (other)
chain: QVQLVESGGGVVQPGRSLRLSCAASGFTFSSYGMHWVRQAPGKGLEWVAVISYKGSNKYYADSVKGRFTISRDNSKNTLYLQMNSLRAEDTAVYYCGGSGYALHDDYYGLDVWGQGTLVTVSSGGGGSGGGGSGGGGSGGGGSQSALTQPASVSGSPGQSITISCTGTSSDVGGYNYVSWYQQHPGKAPKLMIYEVSNRLRGVSNRFSGSKSGNTASLTISGLQAEDEADYYCSSYTSSSALYVFGSGTKVTVLTTTPAPRPPTPAPTIASQPLSLRPEACRPAAGGAVHTRGLDFACDIYIWAPLAGTCGVLLLSLVITLYCKRGRKKLLYIFKQPFMRPVQTTQEEDGCSCRFPEEEEGGCELRVKFSRSADAPAYQQGQNQLYNELNLGRREEYDVLDKRRGRDPEMGGKPRRKNPQEGLYNELQKDKMAEAYSEIGMKGERRRGKGHDGLYQGLSTATKDTYDALHMQALPPR
notes: as for B1
B5: B61-10 BCMA CAR (other)
chain: QVQLVESGGGVVQPGRSLRLSCAASGFTFSSYGMHWVRQAPGKGLEWVAVISYKGSNKYYADSVKGRFTISRDNSKNTLYLQMNSLRAEDTAVYYCGGSGYALHDDYYGLDVWGQGTLVTVSSGGGGSGGGGSGGGGSGGGGSQSALTQPASVSGSPGQSITISCTGTSSDVGGYNYVSWYQQHPGKAPKLMIYEVSNRLRGVSNRFSGSKSGNTASLTISGLQAEDEADYYCSSYTSSSTLYVFGSGTKVTVLTTTPAPRPPTPAPTIASQPLSLRPEACRPAAGGAVHTRGLDFACDIYIWAPLAGTCGVLLLSLVITLYCKRGRKKLLYIFKQPFMRPVQTTQEEDGCSCRFPEEEEGGCELRVKFSRSADAPAYQQGQNQLYNELNLGRREEYDVLDKRRGRDPEMGGKPRRKNPQEGLYNELQKDKMAEAYSEIGMKGERRRGKGHDGLYQGLSTATKDTYDALHMQALPPR
notes: as for B1

This experiment deals with T1, human recombinant (r)BCMA_Fc-AF647. The experiment in a line: flow cytometry, rBCMA_Fc-AF647 staining of CAR-transduced primary human T cells. An excerpt: The following 8 CARs were chosen for analysis of CAR expression, stability and efficacy in primary T cells: R1B6, R1F2, RIGS, PI61, B61-10, B61-02, Hy03, and Hy52. BCMA CAR T cells were generated by starting with blood from healthy apheresed donors whose T cells (CD4+ and CD8+ lymphocytes) were obtained by negative selection for CD3+ T cells. These cells were activated by the addition of CD3/CD28 beads (Dynabeads® Human T-Expander CD3/CD28, Thermo Fisher Scientific) at a ratio of 1:3 (T cell to bead) in T cell medium (RPMI1640, 10% heat-inactivated fetal calf serum (FCS), 2 mM L-glutamine, 1× Penicillin/Streptomycin, 100 μM non-essential amino acids, 1 mM Sodium Pyruvate, 10 mM Hepes, and 55 μM 2-mercaptoethanol). T cells were cultured at 0.5×10⁶ T cells in 1 mL medium per well of a 24-well plate at 37° C., 5% CO₂. After 24 hours, when T cells were blasting, T cells were transduced with BCMA CAR virus at a multiplicity of infection (MOI) of 5. T cells began to divide in a logarithmic growth pattern, which was monitored by measuring the cell counts per mL, and T cells were diluted in fresh medium every two days and de-beaded and harvested for further analyses at day 9. Aliquots of T cells were stained to measure CAR expression by flow cytometry at day 5 and 9 on a FACS Fortessa (BD). All BCMA CAR T cells were produced under research grade (i.e., not clinical grade) manufacturing conditions.
The BCMA-CAR surface expression and its stability was assessed by measuring CAR % and MFI (mean fluorescence intensity) at day 5 and day 9 using flow cytometry analyses of rBCMA_Fc-AF647 stained cells (FIG. 2 and Table 17).
(A flow cytometer gives signals particle by particle.)
Consider B1, for which the “CAR % on T cells, Day 5” value is 35.1%; the “CAR % on T cells, Day 9” value came out at 36.1%; the “CAR MFI on T cells, Day 5” value amounted to 33700 MFI; the “CAR MFI on T cells, Day 9” value amounted to 2860 MFI.
Taken in the same sequence, the figures for B2 were 33.7%, 18.1%, 9460 MFI and 929 MFI.
Turning to B3, the “CAR % on T cells, Day 5” value is 47.4%; the “CAR % on T cells, Day 9” value stood at 42.3%; the “CAR MFI on T cells, Day 5” value stood at 24400 MFI; the “CAR MFI on T cells, Day 9” value was 2100 MFI.
The matching figures for B4: 33.5%, 23.6%, 29100 MFI and 3470 MFI.
Taken in the same sequence, the figures for B5 were 41.1%, 30.3%, 27300 MFI and 3290 MFI.
